# Data from PMC12102759 (2025).
# B1: AXIN1 peptide 235-250 (Axin-1), 16-mer library wild type / PP2A B56 (PPP2R5A B56 domain, residues 1-486) (parent complex)
# chain 1: SGYLPTLNEDEEWKAD
# chain 2: not shown
# Variants of: B1
# Assay: proteomic peptide phage display deep mutational scan (ProP-PD DMS): M13 P8 16-mer library selected against immobilised GST-tagged bait for four days (rounds), NGS of the eluted pools per day and pseudo-replica; bait immobilised on MaxiSorp plates (10 µg), library pre-cleared on GST, 2 h binding at 4 °C, five washes; one round per day, days 1-4; value from days 2 and 3
row,Variant,screen value
1,chain 1 E11K,"0.000202 average fractional NGS count over selection days 2 and 3 (reads of this peptide / all reads for the bait, averaged over …"
2,chain 1 E11R,"0.000311 average fractional NGS count over selection days 2 and 3 (reads of this peptide / all reads for the bait, averaged over …"
3,chain 1 E11F,"0.00161 average fractional NGS count over selection days 2 and 3 (reads of this peptide / all reads for the bait, averaged over …"
4,chain 1 T6A,"0.000414 average fractional NGS count over selection days 2 and 3 (reads of this peptide / all reads for the bait, averaged over …"
5,chain 1 T6V,"0.00125 average fractional NGS count over selection days 2 and 3 (reads of this peptide / all reads for the bait, averaged over …"
6,chain 1 T6I,"0.000627 average fractional NGS count over selection days 2 and 3 (reads of this peptide / all reads for the bait, averaged over …"
7,chain 1 W13L,"0.000454 average fractional NGS count over selection days 2 and 3 (reads of this peptide / all reads for the bait, averaged over …"
8,chain 1 W13M,"0.000138 average fractional NGS count over selection days 2 and 3 (reads of this peptide / all reads for the bait, averaged over …"
9,chain 1 W13Y,"0.000277 average fractional NGS count over selection days 2 and 3 (reads of this peptide / all reads for the bait, averaged over …"
10,chain 1 G2H,"0.000834 average fractional NGS count over selection days 2 and 3 (reads of this peptide / all reads for the bait, averaged over …"
11,chain 1 G2W,"0.00074 average fractional NGS count over selection days 2 and 3 (reads of this peptide / all reads for the bait, averaged over …"
12,chain 1 G2I,"0.000957 average fractional NGS count over selection days 2 and 3 (reads of this peptide / all reads for the bait, averaged over …"
13,chain 1 G2A,"0.00077 average fractional NGS count over selection days 2 and 3 (reads of this peptide / all reads for the bait, averaged over …"
14,chain 1 G2L,"0.000458 average fractional NGS count over selection days 2 and 3 (reads of this peptide / all reads for the bait, averaged over …"
15,chain 1 G2D,"0.000338 average fractional NGS count over selection days 2 and 3 (reads of this peptide / all reads for the bait, averaged over …"
16,chain 1 G2M,"0.0011 average fractional NGS count over selection days 2 and 3 (reads of this peptide / all reads for the bait, averaged over …"
17,chain 1 G2E,"0.000393 average fractional NGS count over selection days 2 and 3 (reads of this peptide / all reads for the bait, averaged over …"
18,chain 1 G2S,"0.000675 average fractional NGS count over selection days 2 and 3 (reads of this peptide / all reads for the bait, averaged over …"
19,chain 1 P5A,"0.00054 average fractional NGS count over selection days 2 and 3 (reads of this peptide / all reads for the bait, averaged over …"
20,chain 1 P5Y,"0.000222 average fractional NGS count over selection days 2 and 3 (reads of this peptide / all reads for the bait, averaged over …"
21,chain 1 D16G,"0.000202 average fractional NGS count over selection days 2 and 3 (reads of this peptide / all reads for the bait, averaged over …"
22,chain 1 D16I,"0.000497 average fractional NGS count over selection days 2 and 3 (reads of this peptide / all reads for the bait, averaged over …"
23,chain 1 D16V,"0.00077 average fractional NGS count over selection days 2 and 3 (reads of this peptide / all reads for the bait, averaged over …"
24,chain 1 D16E,"0.000288 average fractional NGS count over selection days 2 and 3 (reads of this peptide / all reads for the bait, averaged over …"
25,chain 1 D16W,"0.000506 average fractional NGS count over selection days 2 and 3 (reads of this peptide / all reads for the bait, averaged over …"

row,Variant,screen value
1,chain 1 D16L,"0.000211 average fractional NGS count over selection days 2 and 3 (reads of this peptide / all reads for the bait, averaged over …"
2,chain 1 D16P,"0.000234 average fractional NGS count over selection days 2 and 3 (reads of this peptide / all reads for the bait, averaged over …"
3,chain 1 D16N,"0.000396 average fractional NGS count over selection days 2 and 3 (reads of this peptide / all reads for the bait, averaged over …"
4,chain 1 D16Y,"0.00243 average fractional NGS count over selection days 2 and 3 (reads of this peptide / all reads for the bait, averaged over …"
5,chain 1 D16H,"0.0014 average fractional NGS count over selection days 2 and 3 (reads of this peptide / all reads for the bait, averaged over …"
6,chain 1 D16M,"0.00821 average fractional NGS count over selection days 2 and 3 (reads of this peptide / all reads for the bait, averaged over …"
7,chain 1 N8K,"0.000298 average fractional NGS count over selection days 2 and 3 (reads of this peptide / all reads for the bait, averaged over …"
8,chain 1 N8W,"0.000126 average fractional NGS count over selection days 2 and 3 (reads of this peptide / all reads for the bait, averaged over …"
9,chain 1 N8S,"0.000146 average fractional NGS count over selection days 2 and 3 (reads of this peptide / all reads for the bait, averaged over …"
10,chain 1 N8H,"0.000177 average fractional NGS count over selection days 2 and 3 (reads of this peptide / all reads for the bait, averaged over …"
11,chain 1 N8T,"0.000511 average fractional NGS count over selection days 2 and 3 (reads of this peptide / all reads for the bait, averaged over …"
12,chain 1 N8Y,"0.00143 average fractional NGS count over selection days 2 and 3 (reads of this peptide / all reads for the bait, averaged over …"
13,chain 1 N8R,"0.000829 average fractional NGS count over selection days 2 and 3 (reads of this peptide / all reads for the bait, averaged over …"
14,chain 1 N8E,"0.000839 average fractional NGS count over selection days 2 and 3 (reads of this peptide / all reads for the bait, averaged over …"
15,chain 1 N8A,"0.000156 average fractional NGS count over selection days 2 and 3 (reads of this peptide / all reads for the bait, averaged over …"
16,chain 1 N8P,"0.000473 average fractional NGS count over selection days 2 and 3 (reads of this peptide / all reads for the bait, averaged over …"
17,chain 1 N8F,"0.000687 average fractional NGS count over selection days 2 and 3 (reads of this peptide / all reads for the bait, averaged over …"
18,chain 1 A15T,"0.000294 average fractional NGS count over selection days 2 and 3 (reads of this peptide / all reads for the bait, averaged over …"
19,chain 1 A15N,"0.000145 average fractional NGS count over selection days 2 and 3 (reads of this peptide / all reads for the bait, averaged over …"
20,chain 1 A15G,"0.000885 average fractional NGS count over selection days 2 and 3 (reads of this peptide / all reads for the bait, averaged over …"
21,chain 1 A15P,"0.00074 average fractional NGS count over selection days 2 and 3 (reads of this peptide / all reads for the bait, averaged over …"
22,chain 1 A15Y,"0.000791 average fractional NGS count over selection days 2 and 3 (reads of this peptide / all reads for the bait, averaged over …"
23,chain 1 A15L,"0.00106 average fractional NGS count over selection days 2 and 3 (reads of this peptide / all reads for the bait, averaged over …"
24,chain 1 E12L,"0.00045 average fractional NGS count over selection days 2 and 3 (reads of this peptide / all reads for the bait, averaged over …"
25,chain 1 E12P,"0.000257 average fractional NGS count over selection days 2 and 3 (reads of this peptide / all reads for the bait, averaged over …"

row,Variant,screen value
1,chain 1 E12A,"0.000112 average fractional NGS count over selection days 2 and 3 (reads of this peptide / all reads for the bait, averaged over …"
2,chain 1 E12V,"0.000291 average fractional NGS count over selection days 2 and 3 (reads of this peptide / all reads for the bait, averaged over …"
3,chain 1 E12Q,"0.000677 average fractional NGS count over selection days 2 and 3 (reads of this peptide / all reads for the bait, averaged over …"
4,chain 1 E12F,"0.000153 average fractional NGS count over selection days 2 and 3 (reads of this peptide / all reads for the bait, averaged over …"
5,chain 1 D10F,"0.000124 average fractional NGS count over selection days 2 and 3 (reads of this peptide / all reads for the bait, averaged over …"
6,chain 1 D10L,"0.000595 average fractional NGS count over selection days 2 and 3 (reads of this peptide / all reads for the bait, averaged over …"
7,chain 1 D10T,"0.000731 average fractional NGS count over selection days 2 and 3 (reads of this peptide / all reads for the bait, averaged over …"
8,chain 1 D10V,"0.00335 average fractional NGS count over selection days 2 and 3 (reads of this peptide / all reads for the bait, averaged over …"
9,chain 1 D10M,"0.00104 average fractional NGS count over selection days 2 and 3 (reads of this peptide / all reads for the bait, averaged over …"
10,chain 1 K14P,"0.000647 average fractional NGS count over selection days 2 and 3 (reads of this peptide / all reads for the bait, averaged over …"
11,chain 1 K14G,"0.00056 average fractional NGS count over selection days 2 and 3 (reads of this peptide / all reads for the bait, averaged over …"
12,chain 1 K14R,"0.000196 average fractional NGS count over selection days 2 and 3 (reads of this peptide / all reads for the bait, averaged over …"
13,chain 1 K14D,"0.000812 average fractional NGS count over selection days 2 and 3 (reads of this peptide / all reads for the bait, averaged over …"
14,chain 1 K14W,"0.00219 average fractional NGS count over selection days 2 and 3 (reads of this peptide / all reads for the bait, averaged over …"
15,chain 1 K14M,"0.000958 average fractional NGS count over selection days 2 and 3 (reads of this peptide / all reads for the bait, averaged over …"
16,chain 1 K14Y,"0.00389 average fractional NGS count over selection days 2 and 3 (reads of this peptide / all reads for the bait, averaged over …"
17,chain 1 K14Q,"0.00109 average fractional NGS count over selection days 2 and 3 (reads of this peptide / all reads for the bait, averaged over …"
18,chain 1 K14H,"0.00281 average fractional NGS count over selection days 2 and 3 (reads of this peptide / all reads for the bait, averaged over …"
19,chain 1 K14N,"0.000231 average fractional NGS count over selection days 2 and 3 (reads of this peptide / all reads for the bait, averaged over …"
20,chain 1 K14L,"0.00437 average fractional NGS count over selection days 2 and 3 (reads of this peptide / all reads for the bait, averaged over …"
21,chain 1 Y3V,"0.00041 average fractional NGS count over selection days 2 and 3 (reads of this peptide / all reads for the bait, averaged over …"
22,chain 1 Y3F,"0.000133 average fractional NGS count over selection days 2 and 3 (reads of this peptide / all reads for the bait, averaged over …"
23,chain 1 Y3S,"0.000173 average fractional NGS count over selection days 2 and 3 (reads of this peptide / all reads for the bait, averaged over …"
24,chain 1 Y3L,"0.000544 average fractional NGS count over selection days 2 and 3 (reads of this peptide / all reads for the bait, averaged over …"
25,chain 1 L7I,"0.000349 average fractional NGS count over selection days 2 and 3 (reads of this peptide / all reads for the bait, averaged over …"
